Experimental data taken from paper PMC10401628.

Target: human α-synuclein E57K mutant (6xHis:α-Syn-E57K) (human) (UniProt P37840)

Chain of bacterial Hsp90 chaperone with C-terminal hexahistidine (Hsp90:6xHis) (P0A6Z3 whole entry): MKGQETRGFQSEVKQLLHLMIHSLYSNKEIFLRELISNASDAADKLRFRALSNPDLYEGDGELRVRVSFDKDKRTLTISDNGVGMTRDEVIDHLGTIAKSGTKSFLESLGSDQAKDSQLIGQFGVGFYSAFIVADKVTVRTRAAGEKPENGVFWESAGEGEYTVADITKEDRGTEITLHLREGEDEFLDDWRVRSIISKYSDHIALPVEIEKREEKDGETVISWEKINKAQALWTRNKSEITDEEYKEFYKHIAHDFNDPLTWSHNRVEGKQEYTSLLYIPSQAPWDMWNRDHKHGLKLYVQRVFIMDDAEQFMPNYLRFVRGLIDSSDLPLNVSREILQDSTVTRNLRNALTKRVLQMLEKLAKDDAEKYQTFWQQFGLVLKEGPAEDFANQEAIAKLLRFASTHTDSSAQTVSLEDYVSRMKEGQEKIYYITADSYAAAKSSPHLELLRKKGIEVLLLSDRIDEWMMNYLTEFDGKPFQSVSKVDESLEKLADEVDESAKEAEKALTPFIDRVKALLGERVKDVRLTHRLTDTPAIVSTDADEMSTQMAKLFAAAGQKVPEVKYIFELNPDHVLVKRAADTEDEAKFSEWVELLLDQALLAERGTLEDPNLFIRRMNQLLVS

bacterial Hsp90 chaperone with C-terminal hexahistidine (Hsp90:6xHis) (from UniProt P0A6Z3 1-624) (natural protein)
insoluble fraction of α-Syn-E57K after incubation under amyloidogenic conditions with free Hsp90 (18.42% without Hsp90); centrifugation, SDS-PAGE, band quantification: 5.67%
